From US20040132136A1 (ZymoGenetics, published 2004)

Molecular target: the molecule itself
Assay: western blot of BHK conditioned media, reducing against non-reducing conditions
Procedure: Following selection for stable cell transfectants, media isolated from pools was analyzed by western blot under reducing and non-reducing conditions using a Ztgfβ-9 antibody or an anti-EE epitope tag antibody. […] Under non-reducing conditions, Ztgfβ-9 protein migrated as at 49 kDa species. […] C-terminal EE tagged human Ztgfβ-9 expressed in BHK cells was also anti-EE affinity purified and its N-terminal sequence determined.

B1: Human Ztgfβ-9 protein (ligand)
chain: AGAPRAGRRPARPRGCADRPEELLEQLYGRLAAGVLSAFHHTLQLGPREQARNASCPAGGRPADRRFRPPTNLRSVSPWAYRISYDPARYPRYLPEAYCLCRGCLTGLFGEEDVRFRSAPVYMPTVVLRRTPACAGGRSVYTEAYVTIPVGCTCVPEPEKDADSINSSIDKQGAKLLLGPNDAPAGP
notes: Expressed in BHK cells both with and without a C-terminal Glu-Glu tag; It migrated at 29 kDa reduced and 49 kDa non-reduced, read as a disulfide cross-linked homodimer
binding result: binds
